1 substance from US20100233689A1 can be followed below.

Assay [1] addresses endogenous MISRII of the mouse ovarian cancer cell line MOVCAR7 (mouse) (UniProt Q8K592). As to the kind of experiment: cell-based or functional assay.
Assay [2] addresses rat MISRII receptor (MIS type II receptor), transiently expressed in COS7 cells (rat) (UniProt Q62893). As to the kind of experiment: cell-based or functional assay.

Sequence of rat MISRII receptor (MIS type II receptor), transiently expressed in COS7 cells (rat) (Q62893 18-557): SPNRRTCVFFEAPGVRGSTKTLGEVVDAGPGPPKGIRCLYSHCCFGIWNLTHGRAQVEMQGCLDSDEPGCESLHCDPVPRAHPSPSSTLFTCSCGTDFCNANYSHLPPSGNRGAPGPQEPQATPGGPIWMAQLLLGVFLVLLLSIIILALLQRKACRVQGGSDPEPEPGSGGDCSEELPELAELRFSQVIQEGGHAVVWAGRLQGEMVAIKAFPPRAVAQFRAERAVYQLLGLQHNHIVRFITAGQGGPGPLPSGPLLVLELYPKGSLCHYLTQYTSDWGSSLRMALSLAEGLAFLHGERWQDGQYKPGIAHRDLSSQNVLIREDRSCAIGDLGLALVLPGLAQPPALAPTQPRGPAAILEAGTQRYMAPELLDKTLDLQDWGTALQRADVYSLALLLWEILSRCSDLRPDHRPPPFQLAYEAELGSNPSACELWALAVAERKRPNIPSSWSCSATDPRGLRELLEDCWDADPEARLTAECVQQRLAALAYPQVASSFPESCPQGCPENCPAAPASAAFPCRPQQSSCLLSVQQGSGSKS
Sequence of endogenous MISRII of the mouse ovarian cancer cell line MOVCAR7 (mouse) (Q8K592 16-568): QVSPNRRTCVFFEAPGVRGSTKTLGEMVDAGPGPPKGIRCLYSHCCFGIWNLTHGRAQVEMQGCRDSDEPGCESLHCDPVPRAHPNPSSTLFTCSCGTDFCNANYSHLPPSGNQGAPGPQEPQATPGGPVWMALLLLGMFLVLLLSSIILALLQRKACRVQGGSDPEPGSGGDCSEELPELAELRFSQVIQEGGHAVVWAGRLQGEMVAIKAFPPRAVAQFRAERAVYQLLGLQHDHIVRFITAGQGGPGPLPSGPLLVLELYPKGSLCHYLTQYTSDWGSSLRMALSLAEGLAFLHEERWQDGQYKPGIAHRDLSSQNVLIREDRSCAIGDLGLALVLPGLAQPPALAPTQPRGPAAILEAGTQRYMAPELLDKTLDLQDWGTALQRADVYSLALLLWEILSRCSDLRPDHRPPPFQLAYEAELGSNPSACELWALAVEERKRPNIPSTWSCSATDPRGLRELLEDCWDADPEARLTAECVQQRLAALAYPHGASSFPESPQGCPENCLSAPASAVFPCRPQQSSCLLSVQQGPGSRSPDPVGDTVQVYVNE

With “Recombinant human Mullerian Inhibiting Substance (MIS) (from UniProt P03971 25-560) (ligand)”, the BRE-luciferase activity in MOVCAR7 cells, fold increase over untreated cells, 24 h in assay [1] is 2 fold. This substance displayed a BRE-luciferase reporter expression in MISRII-transfected COS7 cells, fold induction, 24 h in assay [2] above 10 fold.
